Results on two substances are retold here after PMC8595662.

The target of assay [1] is AMMO1, human gH/gL-specific neutralizing antibody (recombinant IgG1) (human). In words: SPR. For orientation: SPR reads the build-up and loss of mass on a sensor chip optically.
The target in the next assay is AMMO1 (human). Nature of the assay: SPR.
Sequence of AMMO1 (human) (heavy, as listed by the source, chain 1 of 2): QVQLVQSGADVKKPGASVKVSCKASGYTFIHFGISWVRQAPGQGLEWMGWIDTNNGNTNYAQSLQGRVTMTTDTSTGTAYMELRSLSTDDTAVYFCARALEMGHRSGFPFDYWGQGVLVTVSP
Sequence of AMMO1 (human) (light, as listed by the source, chain 2 of 2): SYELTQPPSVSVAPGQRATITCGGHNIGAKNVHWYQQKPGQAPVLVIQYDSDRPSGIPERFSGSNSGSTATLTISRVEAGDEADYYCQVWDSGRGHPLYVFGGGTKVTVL

Sequence of AMMO1, human gH/gL-specific neutralizing antibody (recombinant IgG1) (human) (heavy, as listed by the source, chain 1 of 2): as the sequence (heavy, as listed by the source, chain 1 of 2) above
Sequence of AMMO1, human gH/gL-specific neutralizing antibody (recombinant IgG1) (human) (light, as listed by the source, chain 2 of 2): as the sequence (light, as listed by the source, chain 2 of 2) above

For orientation: Kd means a measure of binding affinity in units of concentration. “EBV gH/gL single chain with N310A in gH (from UniProt P03231;P03212) (complex)”: the Kd in assay [1] amounted to 0.19 nM.
The koff is the first-order rate constant of dissociation. Low readings indicate a long-lived complex, high ones a short-lived complex. In the assay with AMMO1 (human), “gH N310A/gL (from UniProt P03231;P03212) (complex)” had a koff of 9.6e-05 s⁻¹.
